B1: HDV Ribozyme (parent)
chain: GGCCGGCAUGGUCCCAGCCUCCUCGCUGGCGCCGGCUGGGCAACAUUCCGAGGGGACCGUCCCCUCGGUAAUGGCGAAUGGGACCCA

In the data set the parent is B1. As to the kind of experiment: self-cleavage, relative activity (ratio to wild type); higher = more cleavage; co-transcriptional.
On to A16C G29C, for which the self-cleavage was 0.
In the case of G29U G54U, the self-cleavage was determined as 0.0449.
In the case of C19U G80A, the self-cleavage stood at 0.0573.
For the variant G10A G11A, the self-cleavage was 0.189.
Next, C3U C86A: 0.923; A42U U47A: 0.302; G25A G54C: 0.138.
As to G11A A78U, the self-cleavage amounted to 0.111.
On to C7G G34C, for which the self-cleavage worked out at 0.213.
For U47C G76U, the self-cleavage was 0.895.
In the case of G38A A70C, the self-cleavage came out at 0.177.
Consider A56C A83G, for which the self-cleavage is 1.01.
Turning to G39A G54C, the self-cleavage was 0.369.
As for G5A U60A, the self-cleavage was 0.125.
On to C41G C62A, for which the self-cleavage stood at 0.814.
Take C33U U72A: the self-cleavage amounted to 0.346.
Take G5C C30U: the self-cleavage is 0.128.
With U9G G29C, the self-cleavage amounted to 0.
With U72A, the self-cleavage was 0.698.
Regarding U47C G54U, the self-cleavage turned out to be 1.14.
Next, G5U A56C: 0.831; C58G A77G: 0.831.
Regarding U72A G74U, the self-cleavage came out at 0.397.
With G6A A42G, the self-cleavage was determined as 0.
As for C18A G28C, the self-cleavage stood at 0.095.
Regarding G59C A71U, the self-cleavage came to 1.06.
As for G2C U47A, the self-cleavage worked out at 0.0208.
With G17U A56G, the self-cleavage turned out to be 0.609.
Turning to G74A C85U, the self-cleavage came to 0.462.
With G2A G73A the figure was 0.0742.
Next, G17A C44U: 0.231.
For the variant A42C A51G, the self-cleavage amounted to 0.26.
Turning to G10C G55A, the self-cleavage came out at 1.11.
Take G5U C86G: the self-cleavage is 0.26.
C19U U27A: the self-cleavage came to 0.332.
Consider C3U C62G, for which the self-cleavage worked out at 0.415.
In the case of C30A A78U, the self-cleavage came to 0.237.
For C33U A42U, the self-cleavage was found to be 0.345.
Take G25A G28C: the self-cleavage amounted to 0.231.
With C13G C26A the figure was 0.35.
For the variant G53C A77U, the self-cleavage stood at 0.639.
Next, C33A A78U: 0.108; G1A G80U: 0.0133; U9G G67A: 0.88.
For the variant G74A G82U, the self-cleavage worked out at 0.125.
Next, A45C G55U: 0.525; G2U G73U: 0.0361; C44A A87U: 0.686.
For C33U C86U, the self-cleavage worked out at 0.928.
With G35U A78C the figure was 0.133; with C58G A71C, 0.802.
Consider C3U C30U, for which the self-cleavage stood at 0.345.
On to G28A G74A, for which the self-cleavage was found to be 0.131.
Consider C18U G59C, for which the self-cleavage worked out at 0.651.
For the variant U60G G82A, the self-cleavage is 0.6.
For the variant C21A G40A, the self-cleavage was 0.0647.
As for A16U G40A, the self-cleavage was 0.928.
In the case of A51U G74C, the self-cleavage is 0.243.
As to U37G G74A, the self-cleavage is 0.229.
In the case of C14G U65C, the self-cleavage was 0.8.
With C22A G39C the figure was 0.0437.
For the variant G25A U37A, the self-cleavage is 0.213.
Take C21A U69G: the self-cleavage stood at 0.0723.
Next, U12C C36G: 0.128; C24U C44G: 0.119.
As for G82U C86G, the self-cleavage came to 0.39.
As to C15A G40U, the self-cleavage is 0.352.
For the variant C15A G40C, the self-cleavage stood at 0.0875.
With C14G G40U the figure was 0.0594.
Regarding C13U G35A, the self-cleavage came to 0.272.
Regarding A51C C86U, the self-cleavage is 1.01.
On to G29C C49A, for which the self-cleavage was 0.222.
Consider G68U G81U, for which the self-cleavage was 0.197.
Next, A78C G80U: 0.174; G76U A78G: 1.34; A71G G73U: 0.291.
Consider C30A C63A, for which the self-cleavage is 0.481.
For the variant C15A U27G, the self-cleavage was determined as 0.653.
On to C57U A83C, for which the self-cleavage amounted to 0.665.
As for C14U G73U, the self-cleavage was 0.309.
G50A C84G: the self-cleavage was 0.853.
Take C15U G34C: the self-cleavage was 0.268.
Next, C15U G34U: 0.293.
Take C26G G74A: the self-cleavage is 0.441.
As for G54A U60A, the self-cleavage is 0.758.
Turning to A8G G40A, the self-cleavage stood at 1.08.
Consider U27A G38C, for which the self-cleavage was found to be 0.0665.
With G39A A42C the figure was 0; with C7G G68A, 0.0594.
With C4A G80A, the self-cleavage is 0.0519.
With A45C G59U the figure was 0.507; with G17C A51G, 0.317; with G34U C63G, 0.0475.
As to G74A A87G, the self-cleavage came to 0.339.
As for G28A C75U, the self-cleavage was 0.0563.
For the variant U9A C62U, the self-cleavage was 1.06.
As to C14G C84A, the self-cleavage turned out to be 0.519.
As for C33A C57A, the self-cleavage turned out to be 0.447.
For G39A A87C, the self-cleavage was determined as 0.578.
For the variant C3U G55C, the self-cleavage amounted to 0.867.
With C33A C36A the figure was 0.213; with G34U U46G, 0.196.
With C14U C24A, the self-cleavage came out at 0.76.
Turning to C41U G53A, the self-cleavage was found to be 1.12.
Turning to U20C G38C, the self-cleavage is 0.0831.
Turning to C41U G68U, the self-cleavage stood at 0.504.
With G52A C58A, the self-cleavage is 1.14.
In the case of C66G G67A, the self-cleavage turned out to be 0.706.
G31C A70U: the self-cleavage was found to be 0.128.
As for C15U G29U, the self-cleavage amounted to 0.0594.
Take C75A C84U: the self-cleavage is 0.0545.
With C66U A78C, the self-cleavage turned out to be 0.178.
As for A16U G80U, the self-cleavage was determined as 0.41.
On to C33A U72C, for which the self-cleavage was 0.151.
Consider A8U U37G, for which the self-cleavage amounted to 0.222.
Next, C21A C62A: 0.185.
As for G50A G67C, the self-cleavage turned out to be 0.869.
As to G54U U69A, the self-cleavage came to 0.899.
In the case of U12A C32A, the self-cleavage turned out to be 0.131.
On to A16U C30G, for which the self-cleavage is 0.119.
Regarding C7A C44U, the self-cleavage stood at 0.0723.
With C30U A45G the figure was 0.796.
With U37C A78G the figure was 0.475; with G38C A77U, 0.128.
In the case of G31A C84G, the self-cleavage stood at 0.119.
In the case of C48G U69C, the self-cleavage was 0.987.
G2U G6U: the self-cleavage was found to be 0.0621.
Regarding G29C G76U, the self-cleavage was 0.119.
For G28A A51U, the self-cleavage was 0.138.
Next, G29A A71C: 0.089; C49G C58A: 0.764; U65C A87C: 1.09.
Take G29C C86G: the self-cleavage worked out at 0.133.
U23C G81C: the self-cleavage was found to be 0.249.
Next, G17A C49A: 0.727.
On to G40C G73C, for which the self-cleavage is 0.185.
G25U G59A: the self-cleavage came out at 0.104.
As for C21U U65G, the self-cleavage was 0.0852.
Next, C21A U46G: 0.138; G52U G67C: 0.295; G17A C58A: 0.746.
In the case of G50A A77U, the self-cleavage was determined as 0.721.
With C18A U47G the figure was 0.
As to G6A C66U, the self-cleavage worked out at 0.521.
As for G76U A83G, the self-cleavage was determined as 0.787.
With C19U C62G the figure was 0.
G11C A77C: the self-cleavage came to 0.128.
Next, A78G G82A: 0.365.
For the variant C64U C66A, the self-cleavage is 0.95.
G29A G73C: the self-cleavage is 0.0639.
For the variant U9A G54A, the self-cleavage is 0.943.
As for U27C G28C, the self-cleavage is 0.123.
In the case of G53C C57U, the self-cleavage turned out to be 0.969.
With A43U G53C, the self-cleavage came to 0.508.
For A45U U72C, the self-cleavage was 1.02.
For C14U A77G, the self-cleavage was found to be 1.31.
For G55A G73U, the self-cleavage came to 0.457.
With C3U G35C, the self-cleavage was 0.49.
Take C19U C57A: the self-cleavage was 0.0886.
On to G2U A77C, for which the self-cleavage was found to be 0.0674.
In the case of C3U C58U, the self-cleavage was 0.696.
Turning to C57U A78C, the self-cleavage is 0.312.
With C3G C7G, the self-cleavage came out at 0.0244.
Turning to A8C C18A, the self-cleavage was 0.0415.
For U27A G53C, the self-cleavage was 0.831.
On to A45C A87C, for which the self-cleavage worked out at 0.554.
Take A42G C57A: the self-cleavage was found to be 0.527.

(Values after the RNAGym collection of RNA variant scans (doi:10.7554/elife.80360).)
